According to the DeepSol protein solubility set:

Assay: soluble on expression in E. coli; label from the status in PepcDB or PDB records

| Sequence | soluble on expression in E. coli |
| --- | --- |
| MNYLERLVESWPVEQCSAAVVTSDEVTTAGDGNIRYELASVTKLLSTYAVLIAVEEGAFALDTPCGPEGATVRHLLAHASGVGFRSTDACKAPEQRRIYSSYGFELLADVIAHEADMPFAQYLDEAVCQPIGMTHTQLWGSAGHESYSTVNDLVLFAREILQPSLIAQETLVQACTVQFPELHGIVPGYGMYKPCPWGLGFEIKGEKNPHWTAAVMPHTTVGHFGQAGTYLWVDRESQRAMVALTNRSFGDWAKPLWAETNAGVWEHLDQLNL | not soluble |
| MSLRPSAPELDHAKRQRLARLPKPVPLGVCTLREQRWVVLDLETSGLNPNRDQVLSIGAVAIEDGAIDFAQQFERTLHRPLQKTNASVLIHGLGPSALAAGCDPAEALLDLLDFIGNSPVLAFHAPFDQRMLARALKETLGHRLQSMFLDVAELAPMLNPDTVLREAGLDDWVARFGLQVEERHHASADAQVTAELALILFSQARRQQLDSPLQLEQRLRGWRRRKMQSHGEGHHHHHH | soluble |
| TYSLRTFFVRESAEGLTQGELMKLIKEIVENEDKRKPYSDQEIANILKEKGFKVARRTVAKYREMLGIPSSRERRI | soluble |
| MLQKPKSVKLRALRSPRKFGVAGRSCQEVLRKGCLRFQLPERGSRLCLYEDGTELTEDYFPSVPDNAELVLLTLGQAWQGYVSDIRRFLSAFHEPQVGLIQAAQQLLCDEQAPQRQRLLADLLHNVSQNIAAETRAEDPPWFEGLESRFQSKSGYLRYSCESRIRSYLREVSSYPSTVGAEAQEEFLRVLGSMCQRLRSMQYNGSYFDRGAKGGSRLCTPEGWFSCQGPFDMDSCLSRHSINPYSNRESRILFSTWNLDHIIEKKRTIIPTLVEAIKEQDGREVDWEYFYGLLFTSENLKLVHIVCHKKTTHKLNCDPSRIYKPQTRLKRKQPVRKRQLEHHHHHH | not soluble |
| LHIDTEWRSDFKWDRLAEHISDLSGKYVLDIGCGSGYHLWRMRGAGAKFVVGIDPTQLFLMQFNAIKHFIDDSPVHLLPLGVEQLPELKAFDTVFAMGVLYHRRSPIDFLYQLKAQLVKGGELVLETLIVDG | not soluble |
| MAHHHHHHPPKRAALIQNLRDSYTETSSFAVIEEWAAGTLQEIEGIAKAAVEAHATIRNSTYGRAQAEKSPEQLLGVLQRYQDLCHNVYCQAETIRTVIAIRIPEHKEADNLGVAVQHAVLKVIDELEIKTLGSGEKSGSGGAPTPIGMYALREYLSARSTVEDKLLGSVDAESGKTKGGSQSPSLLLELRQIDADFMLKVELATTHLSTMVRAVINAYLLNWKKLIQPRGGHLDVLYR | soluble |
| MHHHHHHSSGRENLYFQGVWKSYLYQLQQEAPHPRRITCTCEVENRPKYYGREFHGMISREAADQLLIVAEGSYLIRESQRQPGTYTLALRFGSQTRNFRLYYDGKHFVGEKRFESIHDLVTDGLITLYIETKAAEYIAKMTINPIYEHVGYTTLNREPAYKKHMPVLKETHDERDSTGQDGVSEKRLTSLVRRATLKENEQIPKYEKIHNFKVHTFRGPHWCEYCANFMWGLIAQGVKCADCGLNVHKQCSKMVPNDCKPDLKHVKKVYSCDLTTLVKAHTTKRPMVVDMCIREIESRGLNSEGLYRVSGFSDLIEDVKMAFDRDGEKADISVNMYEDINIITGALKLYFRDLPIPLITYDAYPKFIESAKIMDPDEQLETLHEALKLLPPAHCETLRYLMAHLKRVTLHEKENLMNAENLGIVFGPTLMRSPELDAMAALNDIRYQRLVVELLIKNEDILF | soluble |
| MKALLLLVLPWLSPANYIDNVGNLHFLYSELCKGASHYGLTKDRKRRSQDGCPDGCASLTATAPSPEVSAAATISLMTDEPGLDNPAYVSSAEDGQPAISPVDSGRSNRTRARPFERSTIRSRSFKKINRALSVLRRTKSGSAVANHADQGRENSENTTAPEVFPRLYHLIPDGEITSIKINRVDPSESLSIRLVGGSETPLVHIIIQHIYRDGVIARDGRLLPGDIILKVNGMDISNVPHNYAVRLLRQPCQVLWLTVMREQKFRSRNNGQAPDAYRPRDDSFHVILNKSSPEEQLGIKLVRKVDEPGVFIFNVLDGGVAYRHGQLEENDRVLAINGHDLRYGSPESAAHLIQASERRVHLVVSRQVRQRSPDIFQEAGWNSNGSWSPGPGERSNTPKPLHPTITCHEKVVNIQKDPGESLGMTVAGGASHREWDLPIYVISVEPGGVISRDGRIKTGDILLNVDGVELTEVSRSEAVALLKRTSSSIVLKALEVKEYEPQEDCSSPAALDSNHNMAPPSDWSPSWVMWLELPRCLYNCKDIVLRRNTAGSLGFCIVGGYEEYNGNKPFFIKSIVEGTPAYNDGRIRCGDILLAVNGRSTSGMIHACLARLLKELKGRITLTIVSWPGTFL | soluble |
| KPKSAVAPPGAPKKEHVNVVFIGHVDAGKSTIGGQIMYLTGMVDERTLEKYEREAKEKNRETWYLSWALDTNQEERDKGKTVEVGRAYFETEKKHFTILDAPGHKSFVPNMIGGASQADLAVLVISARKGEFETGFEKGGQTREHAMLAKTAGVKHLIVLINKMDDPTVNWSNERYEECKEKLVPFLKKVGFNPKKDIHFMPCSGLTGANLKEQSDFCPWYIGLPFIPYLDNLPNFNRSVDGPIRLPIVDKYKDMGTVVLGKLESGSICKGQQLVMMPNKHNVEVLGILSDDVETDSVAPGENLKIRLKGIEEEEILPGFILCDLNNLCHSGRTFDAQIVIIEHKSIICPGYNAVLHIHTCIEEVEITALICLVDKKSGEKSKTRPRFVKQDQVCIARLRTAGTICLETFKDFPQMGRFTLRDEGKTIAIGKVLKLVPEKD | soluble |
| MSTKADMAIAFHDKGYNCAQAVACSFCQEFGVAEEEMFRIAEGFGLGMGMMEVCGALSGMMMIIGLENSVGEPEKGRLTKGDTYRKVKEYVKKFQEQNGSYLCRELKGVETGKVLRSCPDCIRDAVALTEEYLAAQKQN | not soluble |
| GQTTIQVRVPYRVVGLVVGPKGATIKRIQQRTHTYIVTPGRDKEPVFAVTGMPENVDRAREEIEAHITLR | soluble |
| MPCVQAQYSPSPPGSTYATQTYGSEYTTEIMNPDYAKLTMDLGSTGIMATATTSLPSFSTFMEGYPSSCELKPSCLYQMPPSGPRPLIKMEEGREHGYHHHHHHHHHHHHHHQQQQPSIPPPSGPEDEVLPSTSMYFKQSPPSTPTTPGFPPQAGALWDDELPSAPGCIAPGPLLDPQMKAVPPMAAAARFPIFFKPSPPHPPAPSPAGGHHLGYDPTAAAALSLPLGAAAAAGSQAAALEGHPYGLPLAKRTATLTFPPLGLTASPTASSLLGESPSLPSPPNRSSSSGEGTCAVCGDNAACQHYGVRTCEGCKGFFKRTVQKNAKYVCLANKNCPVDKRRRNRCQYCRFQKCLSVGMVKEVVRTDSLKGRRGRLPSKPKSPLQQEPSQPSPPSPPICMMNALVRALTDATPRDLDYSRYCPTDQATAGTDAEHVQQFYNLLTASIDVSRSWAEKIPGFTDLPKEDQTLLIESAFLELFVLRLSIRSNTAEDKFVFCNGLVLHRLQCLRGFGEWLDSIKDFSLNLQSLNLDIQALACLSALSMITERHGLKEPKRVEELCNKITSSLKDHQRKGQALEPSEPKVLRALVELRKICTQGLQRIFYLKLEDLVSPPSVIDKLFLDTLPF | soluble |
| MGSDKIHHHHHHMMRPALRSTSTPKSPLVTCVSHDLTVSAPQGVFLSGLNTKFRAYVGGFGSGKTYVGCLDLGLFAGQHPKTVQGYFAPTYRDIRDTFWPTVDEAAHSLGFTTKVKSADKEVEFYRGRSYYGTTICRSMDDPGGIVGFKIARALVDEIDILSKDKAQAAWRKIIARMRLVLPGVVNGIGVTTTPEGFRFVYDSFKREPKSNYSMVQASTYENEAFLPPDYISTLLEDYPEELIKAYLMGEFVNLTSGTVYRSYDRLRHRSTQSIQPREPLHIGQDFNVGNMASVVFVQRGEDWHAVDELQGLQDTPHLIEVLCDRYEGHHLTIYPDASGSSRKTVNASTSDIELLRKAGHAIRAPSTNPAVKDRILAVNTAFENGRLFVNALRCKAYAEALEQQAYDKNGEPDKSAGLDHHPDAGGYFVHQKMPVVKPTFTRQELRL | not soluble |
| MGSDKIHHHHHHMQKLQTVNAETLLYEPLEKPSFVVDSLIPTGLSLFCGSQKIGKSWLMLKLCLCVSQGIPLWDMPTMEGDVLYLCLEDTFCRIQDRLFRLTDEASGRLHFAVASCKLSDGLIVQLEDYLKDYPDSRLIVIDTLQKVRTASKDNAYASDYGDISLIKDFADRHSLAVIVVHHIRKQNDSDVFNKVSGTTGLTGSADATFVLEKEKRASDTAKLYVTGRDTPYQEYTLRFRDCRWELVERKTQEQLAKETIPDVLFRLVDFMRDKEEWIGTATELLAAMGETETIPTVITKWLNEYRTTFLSENRICYQYSRRKDGRRIALARRAGDSGDGGDSDIRIPPCYCH | not soluble |
